The source of these data is PMC314469, “Protein Interaction Networks by Proteome Peptide Scanning” (PLoS Biology, 2004).

To fix the notation:
T1: Boi1 SH3 (BOI1_YEAST), P38041
T1 chain: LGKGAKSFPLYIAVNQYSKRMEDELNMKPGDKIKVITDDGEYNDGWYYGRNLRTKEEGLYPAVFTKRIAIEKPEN

T2: Boi2 SH3 (BOI2_YEAST), P39969
T2 chain: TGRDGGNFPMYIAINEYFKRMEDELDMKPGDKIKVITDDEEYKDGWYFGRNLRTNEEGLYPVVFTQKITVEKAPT

T3: Myo5 SH3 (MYO5_YEAST), Q04439
T3 chain: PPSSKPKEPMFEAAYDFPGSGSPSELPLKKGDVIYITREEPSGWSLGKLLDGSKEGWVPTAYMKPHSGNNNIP

T4: Rvs167 SH3 (RV167_YEAST), P39743
T4 chain: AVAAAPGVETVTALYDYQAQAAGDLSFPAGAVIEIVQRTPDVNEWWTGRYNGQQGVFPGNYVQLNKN

T5: Yfr024 SH3 (LSB3_YEAST), P43603
T5 chain: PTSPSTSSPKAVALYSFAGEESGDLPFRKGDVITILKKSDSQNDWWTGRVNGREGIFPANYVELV

T6: Yhr016c SH3 (YSC84_YEAST), P32793
T6 chain: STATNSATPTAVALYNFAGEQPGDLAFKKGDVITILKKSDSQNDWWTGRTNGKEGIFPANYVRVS

One assay concerns the target T1, Boi1 SH3 (BOI1_YEAST), P38041. Kind of assay: SPOT array.
The molecule YVVKKNFPVSPNYT [YMR015C 408-421] gave a normalised SPOT signal, Boehringer light units (BLU); mean over the file's lines of this peptide of 234.
Take YSYLRLLPWWPSLA [YJL083W 456-469]: the normalised SPOT signal, Boehringer light units (BLU); mean over the file's lines of this peptide came to 94.5.
On to YFVKKIRPGNPLTK [YJL149W 279-292], for which the normalised SPOT signal, Boehringer light units (BLU); mean over the file's lines of this peptide was 410.
Turning to YSTNRGIPARPSKD [YPL073C 79-92], the normalised SPOT signal, Boehringer light units (BLU); mean over the file's lines of this peptide is 534.
YVNAKLDPSLPSQY [YDR147W 90-103]: the normalised SPOT signal, Boehringer light units (BLU); mean over the file's lines of this peptide was determined as 71.4.
Still for that read-out and setting: then YVNPRNLPSVPNGL [YLR418C 264-277], with 174.
The molecule YGSEKGSPAGPSAV [YDR429C 58-71] had a normalised SPOT signal, Boehringer light units (BLU); mean over the file's lines of this peptide of 65.1.

Another assay addresses T2, Boi2 SH3 (BOI2_YEAST), P39969. Kind of assay: SPOT array.
YVVKKNFPVSPNYT [YMR015C 408-421] returned a normalised SPOT signal, Boehringer light units (BLU); mean over the file's lines of this peptide of 28.9.
YSYLRLLPWWPSLA [YJL083W 456-469] had a normalised SPOT signal, Boehringer light units (BLU); mean over the file's lines of this peptide of 54.3.
Molecule YFVKKIRPGNPLTK [YJL149W 279-292] had a normalised SPOT signal, Boehringer light units (BLU); mean over the file's lines of this peptide of 58.3.
Same read-out and setting: then YSTNRGIPARPSKD [YPL073C 79-92], with 107; and YVNAKLDPSLPSQY [YDR147W 90-103], with 10.8.
Consider YVNPRNLPSVPNGL [YLR418C 264-277], for which the normalised SPOT signal, Boehringer light units (BLU); mean over the file's lines of this peptide turned out to be 59.5.
YGSEKGSPAGPSAV [YDR429C 58-71] had a normalised SPOT signal, Boehringer light units (BLU); mean over the file's lines of this peptide of 40.

The target in the next assay is T3, Myo5 SH3 (MYO5_YEAST), Q04439. Kind of assay: SPOT array.
Molecule YVVKKNFPVSPNYT [YMR015C 408-421] came in with a normalised SPOT signal, Boehringer light units (BLU); mean over the file's lines of this peptide of 194.
Same read-out and setting: then YSYLRLLPWWPSLA [YJL083W 456-469], with 188; and YFVKKIRPGNPLTK [YJL149W 279-292], with 508.
YSTNRGIPARPSKD [YPL073C 79-92]: the normalised SPOT signal, Boehringer light units (BLU); mean over the file's lines of this peptide amounted to 271.
Consider YVNAKLDPSLPSQY [YDR147W 90-103], for which the normalised SPOT signal, Boehringer light units (BLU); mean over the file's lines of this peptide was determined as 97.1.
The same measure, in the same setting: then YVNPRNLPSVPNGL [YLR418C 264-277], with 180.
In turn, YGSEKGSPAGPSAV [YDR429C 58-71] showed a normalised SPOT signal, Boehringer light units (BLU); mean over the file's lines of this peptide of 50.3.

Another assay concerns the target T4, Rvs167 SH3 (RV167_YEAST), P39743. In words: SPOT array.
Regarding YVVKKNFPVSPNYT [YMR015C 408-421], the normalised SPOT signal, Boehringer light units (BLU); mean over the file's lines of this peptide turned out to be 33.5.
Still for that read-out and setting: then YSYLRLLPWWPSLA [YJL083W 456-469], with 115; and YFVKKIRPGNPLTK [YJL149W 279-292], with 220.
Same read-out and setting: then YSTNRGIPARPSKD [YPL073C 79-92], with 8430; and YVNAKLDPSLPSQY [YDR147W 90-103], with 41.1.
The same measure, in the same setting: then YVNPRNLPSVPNGL [YLR418C 264-277], with 490; and YGSEKGSPAGPSAV [YDR429C 58-71], with 28.6.

The target of another assay is Sho1 SH3 (SHO1_YEAST), P40073. In words: SPOT array.
Sho1 SH3 (SHO1_YEAST), P40073, sequence (P40073 295-366): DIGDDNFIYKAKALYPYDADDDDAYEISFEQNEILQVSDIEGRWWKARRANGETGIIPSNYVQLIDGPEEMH
YVVKKNFPVSPNYT [YMR015C 408-421] displayed a normalised SPOT signal, Boehringer light units (BLU); mean over the file's lines of this peptide of 332.
Regarding YSYLRLLPWWPSLA [YJL083W 456-469], the normalised SPOT signal, Boehringer light units (BLU); mean over the file's lines of this peptide is 138.
Same read-out and setting: then YFVKKIRPGNPLTK [YJL149W 279-292], with 139; and YSTNRGIPARPSKD [YPL073C 79-92], with 179.
In the case of YVNAKLDPSLPSQY [YDR147W 90-103], the normalised SPOT signal, Boehringer light units (BLU); mean over the file's lines of this peptide was 29.3.
Still for that read-out and setting: then YVNPRNLPSVPNGL [YLR418C 264-277], with 2350; and YGSEKGSPAGPSAV [YDR429C 58-71], with 46.4.

Another assay has as its target T5, Yfr024 SH3 (LSB3_YEAST), P43603. In words: SPOT array.
Regarding YVVKKNFPVSPNYT [YMR015C 408-421], the normalised SPOT signal, Boehringer light units (BLU); mean over the file's lines of this peptide was 163.
Molecule YSYLRLLPWWPSLA [YJL083W 456-469] displayed a normalised SPOT signal, Boehringer light units (BLU); mean over the file's lines of this peptide of 94.4.
YFVKKIRPGNPLTK [YJL149W 279-292] registered a normalised SPOT signal, Boehringer light units (BLU); mean over the file's lines of this peptide of 244.
The same measure, in the same setting: then YSTNRGIPARPSKD [YPL073C 79-92], with 17300.
For YVNAKLDPSLPSQY [YDR147W 90-103], the normalised SPOT signal, Boehringer light units (BLU); mean over the file's lines of this peptide was determined as 91.6.
Same read-out and setting: then YVNPRNLPSVPNGL [YLR418C 264-277], with 952; and YGSEKGSPAGPSAV [YDR429C 58-71], with 13.4.

The target of another assay is T6, Yhr016c SH3 (YSC84_YEAST), P32793. Kind of assay: SPOT array.
Turning to YVVKKNFPVSPNYT [YMR015C 408-421], the normalised SPOT signal, Boehringer light units (BLU); mean over the file's lines of this peptide is 39.5.
YSYLRLLPWWPSLA [YJL083W 456-469] returned a normalised SPOT signal, Boehringer light units (BLU); mean over the file's lines of this peptide of 99.5.
The molecule YFVKKIRPGNPLTK [YJL149W 279-292] returned a normalised SPOT signal, Boehringer light units (BLU); mean over the file's lines of this peptide of 92.2.
The molecule YSTNRGIPARPSKD [YPL073C 79-92] showed a normalised SPOT signal, Boehringer light units (BLU); mean over the file's lines of this peptide of 5100.
Same read-out and setting: then YVNAKLDPSLPSQY [YDR147W 90-103], with 17.8.
Turning to YVNPRNLPSVPNGL [YLR418C 264-277], the normalised SPOT signal, Boehringer light units (BLU); mean over the file's lines of this peptide is 765.
The same measure, in the same setting: then YGSEKGSPAGPSAV [YDR429C 58-71], with 8.8.
